# Assay results published in doi:10.1101/2023.09.27.559698.
# What was measured:
# [1] = target: 53BP1 GAR(3K)-Tudor (Homo sapiens, UniProt Q12888 1288-1659, R1396K;R1398K;R1401K); assay: SPR
# [2] = target: 53BP1 GAR-Tudor (Homo sapiens, UniProt Q12888 1288-1659); assay: SPR
# Sequence of 53BP1 GAR-Tudor (Q12888 1288-1659): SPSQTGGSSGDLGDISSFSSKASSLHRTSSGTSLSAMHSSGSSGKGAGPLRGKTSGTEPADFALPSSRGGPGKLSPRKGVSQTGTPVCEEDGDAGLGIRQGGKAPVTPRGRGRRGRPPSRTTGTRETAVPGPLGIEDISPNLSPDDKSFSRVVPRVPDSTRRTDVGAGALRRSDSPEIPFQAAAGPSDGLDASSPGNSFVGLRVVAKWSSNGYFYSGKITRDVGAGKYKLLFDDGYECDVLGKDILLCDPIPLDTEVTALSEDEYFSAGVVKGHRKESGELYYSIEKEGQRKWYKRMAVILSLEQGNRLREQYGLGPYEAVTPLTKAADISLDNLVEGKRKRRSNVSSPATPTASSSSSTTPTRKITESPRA
# Sequence of 53BP1 GAR(3K)-Tudor (Q12888 1288-1659 R1396K/R1398K/R1401K): as the sequence (Q12888 1288-1659) above, with R109K, R111K, R114K counted along it
binder,measurement,setting,value
"GCUGCGGUGUGGAAGGAGUGGUCGGGUUGCGCAGCG (structured_RNA) [SC1 RNA, biotinylated]",binding result,[1],no binding
same,Kd,[2],~8 nM
